Results from patent US20260097113A1 (Pfizer, published 2026).

Columns and labels:
[1] = target: RSV A + RSV B bivalent composition (RSV subtype A; RSV subtype B); experiment: AM14 Fab titration by SEC; High-Slow 2 cycle; 8 M 25°C
[2] = target: RSV A + RSV B bivalent composition (RSV subtype A; RSV subtype B); experiment: AM14 Fab titration by SEC; High-Slow 2 cycle; 1 M 25°C
[3] = target: RSV A + RSV B bivalent composition (RSV subtype A; RSV subtype B); experiment: AM14 Fab titration by SEC; Low-Fast cycle; T0
[4] = target: RSV A + RSV B bivalent composition (RSV subtype A; RSV subtype B); experiment: AM14 Fab titration by SEC; Low-Fast cycle; 8 M 2-8°C
[5] = target: RSV A + RSV B bivalent composition (RSV subtype A; RSV subtype B); experiment: AM14 Fab titration by SEC; Target cycle; 8 M 2-8°C
[6] = target: RSV A + RSV B bivalent composition (RSV subtype A; RSV subtype B); experiment: AM14 Fab titration by SEC; High-Slow 2 cycle; 3 M 2-8°C
[7] = target: RSV A + RSV B bivalent composition (RSV subtype A; RSV subtype B); experiment: AM14 Fab titration by SEC; composition of Table 14; Cumulative Aggressive (High-Slow) cycle
[8] = target: RSV A + RSV B bivalent composition (RSV subtype A; RSV subtype B); experiment: AM14 Fab titration by SEC; High-Slow 1 cycle; T0 (second value)
[9] = target: T1, RSV F protein of subtype A comprising a polypeptide of SEQ ID NO: 1 and a polypeptide of SEQ ID NO: 2 (RSV subtype A, UniProt P11209 137-513; P03420 26-109); experiment: AM14 ELISA; F14 (pH 7, 50 mM NaCl, 4.5% sucrose); 2 wk 25°C
T1 construct: Stabilized prefusion F trimer made of three F2-F1 heterodimers; Produced recombinantly in CHO cells; also called RSV A; RSVA
T1 chain 1: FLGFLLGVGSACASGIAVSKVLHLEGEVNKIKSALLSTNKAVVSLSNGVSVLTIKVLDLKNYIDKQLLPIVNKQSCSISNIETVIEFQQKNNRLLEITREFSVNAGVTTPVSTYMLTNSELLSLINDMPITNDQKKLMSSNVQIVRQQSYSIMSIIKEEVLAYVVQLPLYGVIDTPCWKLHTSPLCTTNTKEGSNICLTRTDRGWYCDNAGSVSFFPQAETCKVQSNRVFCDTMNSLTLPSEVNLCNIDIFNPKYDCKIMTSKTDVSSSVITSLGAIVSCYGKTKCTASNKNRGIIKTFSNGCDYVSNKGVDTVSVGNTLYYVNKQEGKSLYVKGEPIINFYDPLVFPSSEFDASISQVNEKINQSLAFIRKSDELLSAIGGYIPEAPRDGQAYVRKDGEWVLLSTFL
T1 chain 2: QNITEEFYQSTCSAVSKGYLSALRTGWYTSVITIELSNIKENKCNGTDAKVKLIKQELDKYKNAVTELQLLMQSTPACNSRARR

[10] = target: T1, RSV F protein of subtype A comprising a …; experiment: AM14 ELISA; F10 (pH 7, 50 mM NaCl, 4.5% sucrose); 1 wk 5°C
[11] = target: T1, RSV F protein of subtype A comprising a …; experiment: AM14 ELISA; F18 (pH 7, 50 mM NaCl, 3% sucrose + 3% mannitol); 2 wk 5°C
[12] = target: T1, RSV F protein of subtype A comprising a …; experiment: AM14 ELISA; F11 (pH 7, 50 mM NaCl, 9.0% sucrose); T0
[13] = target: T1, RSV F protein of subtype A comprising a …; experiment: AM14 ELISA; F11 (pH 7, 50 mM NaCl, 9.0% sucrose); 2 wk 25°C
[14] = target: T1, RSV F protein of subtype A comprising a …; experiment: AM14 ELISA; F18 (pH 7, 50 mM NaCl, 3% sucrose + 3% mannitol); 1 wk 25°C
[15] = target: T1, RSV F protein of subtype A comprising a …; experiment: AM14 ELISA; F7 (pH 6, 100 mM NaCl, 0% sucrose); T0
[16] = target: T1, RSV F protein of subtype A comprising a …; experiment: AM14 ELISA; F16 (pH 6, 0 mM NaCl, 0% sucrose); 2 wk 5°C
[17] = target: T1, RSV F protein of subtype A comprising a …; experiment: AM14 ELISA; F1 (pH 8, 100 mM NaCl, 0% sucrose); 2 wk 25°C
[18] = target: T1, RSV F protein of subtype A comprising a …; experiment: AM14 ELISA; F4 (pH 6, 50 mM NaCl, 4.5% sucrose); 1 wk 25°C

AM14 Fab
Prefusion Content (%) [1]: 71%
Prefusion Content (%) [2]: 72%
Prefusion Content (%) [3]: 76%
Prefusion Content (%) [4]: 73%
Prefusion Content (%) [5]: 73%
Prefusion Content (%) [6]: 62%
Prefusion Content (%) [7]: 64%
Prefusion Content (%) [8]: 68%

B1: AM14 (trimeric prefusion specific antibody of the AM14 ELISA) (antibody, V domains shown)
VH: EVQLVESGGGVVQPGRSLRLSCAASGFSFSHYAMHWVRQAPGKGLEWVAVISYDGENTYYADSVKGRFSISRDNSKNTVSLQMNSLRPEDTALYYCARDRIVDDYYYYGMDVWGQGATVTVSS
VL: DIQMTQSPSSLSASVGDRVTITCQASQDIKKYLNWYHQKPGKVPELLMHDASNLETGVPSRFSGRGSGTDFTLTISSLQPEDIGTYYCQQYDNLPPLTFGGGTKVEIKR
notes: Antibody as used in the AM14 ELISA, detected with an HRP-labeled secondary antibody
AM14 prefusion content (%), relative to standard [9]: 78%
AM14 prefusion content (%), relative to standard [10]: 93%
AM14 prefusion content (%), relative to standard [11]: 85%
AM14 prefusion content (%), relative to standard [12]: 102%
AM14 prefusion content (%), relative to standard [13]: 82%
AM14 prefusion content (%), relative to standard [14]: 83%
AM14 prefusion content (%), relative to standard [15]: 88%
AM14 prefusion content (%), relative to standard [16]: 67%
AM14 prefusion content (%), relative to standard [17]: 93%
AM14 prefusion content (%), relative to standard [18]: 59%
